Measured values published in patent US20070148164A1 (Biogen, published 2007).

Legend:
[1] = target: T1, biotinylated human FcRn-huM4Fc fusion protein (human, biotinylated with BiotinXX sulfosuccinimidyl ester (sites not given)); experiment: FRET competition, pH 5.8: competitor mAb against Eu-labelled h5C8 for biotinylated hFcRnFc; reference w.t. control antibody
T1 construct: also called bhFcRnFc; biotinylated Fc/FcRn fusion protein

[2] = target: T1, biotinylated human FcRn-huM4Fc fusion …; experiment: AlphaScreen competition, pH 6.0: altered antibody against human IgG1 acceptor beads for biotinylated hFcRnFc; reference control antibody

Row | fold lower FcRn binding affinity than the control antibody [1] [fold] | fold lower FcRn binding affinity than the control antibody [2] [fold] | Binder
1 | ~4000 | – | huCBE11 altered antibody with mutation N434L (antibody, human IgG1, kappa, Position is in EU numbering) heavy: not shown light: DIQMTQSPSSLSASVGDRVTITCKAGQDIKSYLSWYQQKPGKAPKLLIYYATRLADGVPSRFSGSGSGTDYTLTISSLQPEDFATYYCLQHGESPWTFGGGTKLEIKRTVAAPSVFIFPPSDEQLKSGTASVVCLLNNFYPREAKVQWKVDNALQSGNSQESVTEQDSKDSTYSLSSTLTLSKADYEKHKVYACEVTHQGLSSPVTKSFNRGEC
2 | – | ~1500 | huCBE11 altered antibody with mutation Q438E (antibody, human IgG1, kappa, Position is in EU numbering) heavy: not shown light: DIQMTQSPSSLSASVGDRVTITCKAGQDIKSYLSWYQQKPGKAPKLLIYYATRLADGVPSRFSGSGSGTDYTLTISSLQPEDFATYYCLQHGESPWTFGGGTKLEIKRTVAAPSVFIFPPSDEQLKSGTASVVCLLNNFYPREAKVQWKVDNALQSGNSQESVTEQDSKDSTYSLSSTLTLSKADYEKHKVYACEVTHQGLSSPVTKSFNRGEC
